{
  "source": "paper PMC8167360",
  "binders": {"B1": {"name": "middle domain of human Paip1 (Paip1M), purified (domain or fragment)", "chain": "GSHMASMTGGQQMGRGSTLSEYVQDFLNHLTEQPGSFETEIEQFAETLNGCVTTDDALQELVELIYQQATSIPNFSYMGARLCNYLSHHLTISPQSGNFRQLLLQRCRTEYEVKDQAAKGDEVTRKRFHAFVLFLGELYLNLEIKGTNGQVTRADILQVGLRELLNALFSNPMDDNLICAVKLLKLTGSVLEDAWKEKGKMDMEEIIQRIENVVLDANCSRDVKQMLLKLVELRSS"}},
  "target": "Mac2 (SUD-N, macrodomain II) of SARS-CoV Nsp3, purified (SARS-CoV (strain Frankfurt))",
  "test": "ITC; […] ([…]) […] ([…]) […]; 25°C; VP-ITC; 20 mM Tris–HCl pH 8.5, 150 mM NaCl",
  "data": [
    {"binder": "B1", "values": [
      {"measurement": "Kd", "value": 15.5, "unit": "µM"},
      {"measurement": "dH", "value": -6.78, "unit": "kcal/mol"},
      {"measurement": "stoichiometry N", "value": 0.94}
    ]}
  ]
}
